Results from PMC9478406, “AMPK-related protein kinase ARK5 regulates subcellular localization of RNA-binding protein hnRNP A1 during hypertonic stress” (The Journal of Biological Chemistry, 2022).

Target: T1, GST-tagged ARK5 wild type (AMPK-related protein kinase 5) (human, UniProt O60285 1-661)
T1 construct: ARK5 (aka NUAK1), UniProt ID O60285; Printed both as GST-ARK5 and ARK5-GST, so the end of the tag is not clear; also called NUAK1; GST-ARK5; source: U2OS, transfected, in lysate; U2OS, transfected, purified (Pierce GST spin purification kit)
T1 sequence (looked up): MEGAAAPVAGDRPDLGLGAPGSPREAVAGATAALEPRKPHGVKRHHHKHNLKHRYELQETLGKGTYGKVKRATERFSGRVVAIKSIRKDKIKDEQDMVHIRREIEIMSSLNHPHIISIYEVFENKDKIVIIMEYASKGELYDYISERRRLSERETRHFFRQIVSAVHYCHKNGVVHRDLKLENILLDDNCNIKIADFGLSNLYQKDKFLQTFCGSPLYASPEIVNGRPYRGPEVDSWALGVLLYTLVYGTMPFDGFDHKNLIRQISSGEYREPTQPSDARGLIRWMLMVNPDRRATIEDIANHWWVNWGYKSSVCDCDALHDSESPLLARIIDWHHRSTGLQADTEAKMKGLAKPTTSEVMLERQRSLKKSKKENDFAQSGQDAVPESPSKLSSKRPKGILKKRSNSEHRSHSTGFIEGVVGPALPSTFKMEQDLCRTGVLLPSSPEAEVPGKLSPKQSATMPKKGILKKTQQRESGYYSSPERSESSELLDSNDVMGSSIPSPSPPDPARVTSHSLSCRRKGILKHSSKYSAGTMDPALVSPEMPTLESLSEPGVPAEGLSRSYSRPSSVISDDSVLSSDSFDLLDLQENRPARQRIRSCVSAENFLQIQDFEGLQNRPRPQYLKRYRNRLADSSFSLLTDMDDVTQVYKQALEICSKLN
Assay: co-IP; in vivo co-IP: U2OS cells cotransfected with GST-ARK5 (WT or KD) and FLAG-hnRNP A1 (WT, fragments or mutants); lysate in co-IP buffer (25 mM Tris-HCl pH 7.4, 150 mM NaCl, 0.5% Triton X-100), GSH Sepharose beads overnight at 4 °C, immunoblotting
Details: partners not purified

binding result: binds
B1: FLAG-tagged hnRNP A1 wild type (heterogeneous nuclear ribonucleoprotein A1) (natural protein, human, UniProt P09651-2 1-320, looked up)
chain: MSKSESPKEPEQLRKLFIGGLSFETTDESLRSHFEQWGTLTDCVVMRDPNTKRSRGFGFVTYATVEEVDAAMNARPHKVDGRVVEPKRAVSREDSQRPGAHLTVKKIFVGGIKEDTEEHHLRDYFEQYGKIEVIEIMTDRGSGKKRGFAFVTFDDHDSVDKIVIQKYHTVNGHNCEVRKALSKQEMASASSSQRGRSGSGNFGGGRGGGFGGNDNFGRGGNFSGRGGFGGSRGGGGYGGSGDGYNGFGNDGSNFGGGGSYNDFGNYNNQSSNFGPMKGGNFGGRSSGPYGGGGQYFAKPRNQGGYGGSSSSSSYGSGRRF
notes: hnRNP A1, full length, printed length 320 aa (residues 1-320); The printed residue numbers (1-320) fit the 320-residue isoform; also called FLAG-hnRNP A1 WT; A1-WT; source: U2OS, transfected, in lysate; U2OS, transfected, purified separately
